# Laboratory results taken from US20240116995A1 (89BIO, published 2024).
# Target: T1, human β-Klotho (human, UniProt Q86Z14 1-1044)
# T1 sequence (looked up): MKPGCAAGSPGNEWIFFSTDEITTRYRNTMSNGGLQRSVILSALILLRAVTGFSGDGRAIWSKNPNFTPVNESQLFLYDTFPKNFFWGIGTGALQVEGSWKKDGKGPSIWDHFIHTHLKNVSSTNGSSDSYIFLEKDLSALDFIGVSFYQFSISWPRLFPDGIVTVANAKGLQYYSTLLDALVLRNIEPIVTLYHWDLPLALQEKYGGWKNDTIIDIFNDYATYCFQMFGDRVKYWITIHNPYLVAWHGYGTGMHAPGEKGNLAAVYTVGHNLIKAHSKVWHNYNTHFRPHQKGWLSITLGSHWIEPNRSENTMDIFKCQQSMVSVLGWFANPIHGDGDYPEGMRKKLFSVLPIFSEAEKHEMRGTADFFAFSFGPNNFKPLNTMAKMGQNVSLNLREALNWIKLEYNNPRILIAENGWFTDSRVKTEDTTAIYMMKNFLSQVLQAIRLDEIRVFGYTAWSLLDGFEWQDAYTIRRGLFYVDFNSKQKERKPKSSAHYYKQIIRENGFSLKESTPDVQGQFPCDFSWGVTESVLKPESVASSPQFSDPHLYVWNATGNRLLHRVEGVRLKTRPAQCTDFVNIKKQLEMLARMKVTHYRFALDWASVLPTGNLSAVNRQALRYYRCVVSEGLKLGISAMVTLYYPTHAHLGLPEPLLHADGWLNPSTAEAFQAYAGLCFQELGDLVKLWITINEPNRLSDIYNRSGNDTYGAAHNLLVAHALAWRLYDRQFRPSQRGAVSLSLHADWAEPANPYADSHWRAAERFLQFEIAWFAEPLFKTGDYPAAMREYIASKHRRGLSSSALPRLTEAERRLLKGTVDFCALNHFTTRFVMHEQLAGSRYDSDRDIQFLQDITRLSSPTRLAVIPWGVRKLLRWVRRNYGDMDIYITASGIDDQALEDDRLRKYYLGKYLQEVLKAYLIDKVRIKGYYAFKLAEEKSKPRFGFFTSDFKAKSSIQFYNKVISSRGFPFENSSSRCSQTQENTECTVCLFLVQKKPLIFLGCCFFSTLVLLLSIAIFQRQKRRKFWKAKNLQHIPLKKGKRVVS
# Assay: cell-based or functional assay
row,Binder,ERK phosphorylation HEK-293 cells expressing β-Klotho EC50 values [nM]
1,"20 kDa PEG-FGF-21 P(5)TSSP mutant conjugate (ligand, GalNAc-SA-PEG-20 kDa (glycoPEG) on the introduced threonine 6) MHPIPTSSPLLQFGGQVRQRYLYTDDAQQTEAHLEIREDGTVGGAADQSPESLLQLKALKPGVIQILGVKTSRFLCQRPDGALYGSLHFDPEACSFRELLLEDGYNVYQSEAHGLPLHLPGNKSPHRDPAPRGPARFLPLPGLPPALPEPPGILAPQPPDVGSSDPLSMVGPSQGRSPSYAS",293
2,"30 kDa PEG-FGF-21 P(156)TP mutant conjugate (ligand, GalNAc-SA-PEG-30 kDa (glycoPEG) on the introduced threonine 157) MHPIPDSSPLLQFGGQVRQRYLYTDDAQQTEAHLEIREDGTVGGAADQSPESLLQLKALKPGVIQILGVKTSRFLCQRPDGALYGSLHFDPEACSFRELLLEDGYNVYQSEAHGLPLHLPGNKSPHRDPAPRGPARFLPLPGLPPALPEPPGILAPTPPDVGSSDPLSMVGPSQGRSPSYAS",188
3,"30 kDa PEG-FGF-21 P(5)TSSP mutant conjugate (ligand, GalNAc-SA-PEG-30 kDa (glycoPEG) on the introduced threonine 6) MHPIPTSSPLLQFGGQVRQRYLYTDDAQQTEAHLEIREDGTVGGAADQSPESLLQLKALKPGVIQILGVKTSRFLCQRPDGALYGSLHFDPEACSFRELLLEDGYNVYQSEAHGLPLHLPGNKSPHRDPAPRGPARFLPLPGLPPALPEPPGILAPQPPDVGSSDPLSMVGPSQGRSPSYAS",> 3000
4,"20 kDa PEG-FGF-21 P(172)TQGAS mutant conjugate (ligand, GalNAc-SA-PEG-20 kDa (glycoPEG) on the introduced threonine 173) MHPIPDSSPLLQFGGQVRQRYLYTDDAQQTEAHLEIREDGTVGGAADQSPESLLQLKALKPGVIQILGVKTSRFLCQRPDGALYGSLHFDPEACSFRELLLEDGYNVYQSEAHGLPLHLPGNKSPHRDPAPRGPARFLPLPGLPPALPEPPGILAPQPPDVGSSDPLSMVGPTQGASPSYAS",86
5,"20 kDa PEG-FGF-21 P(156)TP mutant conjugate (ligand, GalNAc-SA-PEG-20 kDa (glycoPEG) on the introduced threonine 157) MHPIPDSSPLLQFGGQVRQRYLYTDDAQQTEAHLEIREDGTVGGAADQSPESLLQLKALKPGVIQILGVKTSRFLCQRPDGALYGSLHFDPEACSFRELLLEDGYNVYQSEAHGLPLHLPGNKSPHRDPAPRGPARFLPLPGLPPALPEPPGILAPTPPDVGSSDPLSMVGPSQGRSPSYAS",109
6,"30 kDa PEG-FGF-21 P(172)TQGAS mutant conjugate (ligand, GalNAc-SA-PEG-30 kDa (glycoPEG) on the introduced threonine 173) MHPIPDSSPLLQFGGQVRQRYLYTDDAQQTEAHLEIREDGTVGGAADQSPESLLQLKALKPGVIQILGVKTSRFLCQRPDGALYGSLHFDPEACSFRELLLEDGYNVYQSEAHGLPLHLPGNKSPHRDPAPRGPARFLPLPGLPPALPEPPGILAPQPPDVGSSDPLSMVGPTQGASPSYAS",177
